B1: CPEB3 Ribozyme (parent)
chain: UAACAGGGGGCCACAGCAGAAGCGUUCACGUCGCAGCCCCUGUCAGAUUCUGGUGAAUCUGCGAAUUCUGCUGUAUAUCUC

Variants of: B1
Assay: self-cleavage, relative activity (ratio to wild type); higher = more cleavage; in vitro, sequencing
Summary of the method: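 Relative activity compares each variant's cleaved/total read fraction with that of the unmutated ribozyme. To get these fractions, barcoded CPEB3 ribozyme libraries from rounds of error-prone PCR were transcribed with T7 RNA polymerase for 5 hours at 37°C and then given 15 min of DNase I treatment before EDTA was added. The RNAs were reverse transcribed with template switching and sequenced on Illumina, and DNA sequencing linked barcodes to variants. A minimum of 5 reads applied, and three batches were averaged.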

Variant | self-cleavage
UAACAGGGGGCCACAGCAGAAGCGUUCACGGCGCAGCCCCUGUCAGAUUCUGGUGAAUCUGCGGAUUCUGCUGUAUAUCUC [U31G A64G] | 0.46
UAACAGGGGGCCACAGCAGAAGCGUUCACGGCGCAGCCCCUGUCAGAUUCUGGUGAAUCUGCGAAUUCUGCUGUAUGUCUC [U31G A77G] | 0.59
UAACAGGGGGCCACAGCAGAAGCGUUCACGGUGCAGCCCCUGUCAGAUUCUGGUGAAUCUGCGAAUUCUGCUGUAUAUCUC [U31G C32U] | 0.22
UAACAGGGGGCCACAGCAGAAGCGUUCACGGAGCAGCCCCUGUCAGAUUCUGGUGAAUCUGCGAAUUCUGCUGUAUAUCUC [U31G C32A] | 0.28
UAACAGGGGGCCACAGCAGAAGCGUUCACGGCGCUGCCCCUGUCAGAUUCUGGUGAAUCUGCGAAUUCUGCUGUAUAUCUC [U31G A35U] | 0.36
UAACAGGGGGCCACAGCAGAAGCGUUCACGGCGCGGCCCCUGUCAGAUUCUGGUGAAUCUGCGAAUUCUGCUGUAUAUCUC [U31G A35G] | 1.1
UAACAGGGGGCCACAGCAGAAGCGUUCACGUAGCAGCACCUGUCAGAUUCUGGUGAAUCUGCGAAUUCUGCUGUAUAUCUC [C32A C38A] | 0.25
UAACAGGGGGCCACAGCAGAAGCGUUCACGUAGCAGCGCCUGUCAGAUUCUGGUGAAUCUGCGAAUUCUGCUGUAUAUCUC [C32A C38G] | 0.18
UAACAGGGGGCCACAGCAGAAGCGUUCACGGCGCAGCCCCUGUCUGAUUCUGGUGAAUCUGCGAAUUCUGCUGUAUAUCUC [U31G A45U] | 0.57
UAACAGGGGGCCACAGCAGAAGCGUUCACGGCGCAGCCCCUGUCGGAUUCUGGUGAAUCUGCGAAUUCUGCUGUAUAUCUC [U31G A45G] | 0.37
UAACAGGGGGCCACAGCAGAAGCGUUCACGGCGCAGCCCCUGUCCGAUUCUGGUGAAUCUGCGAAUUCUGCUGUAUAUCUC [U31G A45C] | 0.33
UAACAGGGGGCCACAGCAGAAGCGUUCACGUAGCAGCCCCUGUCAGGUUCUGGUGAAUCUGCGAAUUCUGCUGUAUAUCUC [C32A A47G] | 0.14
UAACAGGGGGCCACAGCAGAAGCGUUCACGGCGCAGCCCCUGUCAGAUUCUGGUGAAUCUGCGAAUUCAGCUGUAUAUCUC [U31G U69A] | 0.22
UAACAGGGGGCCACAGCAGAAGCGUUCACGGCGCAGCCCCUGUCAGAUUCUGGUGAAUCUGCGAAUUCCGCUGUAUAUCUC [U31G U69C] | 0.18
UAACAGGGGGCCACAGCAGAAGCGUUCACGGCGCAGCCCCUGUCAGAUUCUGGUGAAUCUGCGAAUACUGCUGUAUAUCUC [U31G U67A] | 0.25
UAACAGGGGGCCACAGCAGAAGCGUUCACGGCGCAGCCCCUGUCAGAUUCUGGUGAAUCUGCGAAUCCUGCUGUAUAUCUC [U31G U67C] | 0.3
UAACAGGGGGCCACAGCAGAAGCGUUCACGUAGCGGCCCCUGUCAGAUUCUGGUGAAUCUGCGAAUUCUGCUGUAUAUCUC [C32A A35G] | 0.87
UAACAGGGGGCCACAGCAGAAGCGUUCACGGCGCAGCCCCAGUCAGAUUCUGGUGAAUCUGCGAAUUCUGCUGUAUAUCUC [U31G U41A] | 0.29
UAACAGGGGGCCACAGCAGAAGCGUUCACGGCGCAGCCCCCGUCAGAUUCUGGUGAAUCUGCGAAUUCUGCUGUAUAUCUC [U31G U41C] | 0.33
UAACAGGGGGCCACAGCAGAAGCGUUCACGGCGCAGCCCCUGUCAGAUUCUGGUGAAUCUGGGAAUUCUGCUGUAUAUCUC [U31G C62G] | 0.15
UAACAGGGGGCCACAGCAGAAGCGUUCACGGCGCAGCCCCUGUCAGAUUCUGGUGAAUCUGCGAAUUAUGCUGUAUAUCUC [U31G C68A] | 0.31
UAACAGGGGGCCACAGCAGAAGCGUUCACGUAGCAGCCCCUGUCUGAUUCUGGUGAAUCUGCGAAUUCUGCUGUAUAUCUC [C32A A45U] | 0.35
UAACAGGGGGCCACAGCAGAAGCGUUCACGUAGCAGCCCCUGUCGGAUUCUGGUGAAUCUGCGAAUUCUGCUGUAUAUCUC [C32A A45G] | 0.32

Variant | self-cleavage
UAACAGGGGGCCACAGCAGAAGCGUUCACGGCGCAGCCCCUGUCAGAUUCUGGUGAAUCUGCGAACUCUGCUGUAUAUCUC [U31G U66C] | 0.37
UAACAGGGGGCCACAGCAGAAGCGUUCACGUAGCAGCCCCUGUCAGAUUCUGGUGAAUCUGCGAAUUCUGCUGUUUAUCUC [C32A A75U] | 0.16
UAACAGGGGGCCACAGCAGAAGCGUUCACGUAGCAGCCCCUGUCAGAUUCUGGUGAAUCUGCGAAUUCUGCUGUCUAUCUC [C32A A75C] | 0.56
UAACAGGGGGCCACAGCAGAAGCGUUCACGGCGCAGCCCCUGUCAGAUUCUAGUGAAUCUGCGAAUUCUGCUGUAUAUCUC [U31G G52A] | 0.74
UAACAGGGGGCCACAGCAGAAGCGUUCACGUAGCAGCCCCUGUCAGAUUCUGGUGAAUCUGCGGAUUCUGCUGUAUAUCUC [C32A A64G] | 0.1
UAACAGGGGGCCACAGCAGAAGCGUUCACGGCGCAGCCCCUGUCAGAUUCUGGUGAAUCUGCGAAUUCUGCUGUUUAUCUC [U31G A75U] | 0.46
UAACAGGGGGCCACAGCAGAAGCGUUCACGGCGCAGCCCCUGUCAGAUUCUGGUGAAUCUGCGAAUUCUGCUGUGUAUCUC [U31G A75G] | 0.54
UAACAGGGGGCCACAGCAGAAGCGUUCACGGCGCAGCCCCUGUUAGAUUCUGGUGAAUCUGCGAAUUCUGCUGUAUAUCUC [U31G C44U] | 0.16
UAACAGGGGGCCACAGCAGAAGCGUUCACGGCGCAGCCCCUGUCAGAUUCUGGUAAAUCUGCGAAUUCUGCUGUAUAUCUC [U31G G55A] | 0.21
UAACAGGGGGCCACAGCAGAAGCGUUCACGUAGCAGCCCCUGUCAGAUUCUGGUGAAUCUGCGAAUUCUGCUGUAUAUCUC [C32A] | 0.29
UAACAGGGGGCCACAGCAGAAGCGUUCACGGCGCAGCCCCUGUCAGAUUCUGGUGAAUCUGCGAGUUCUGCUGUAUAUCUC [U31G A65G] | 0.22
UAACAGGGGGCCACAGCAGAAGCGUUCACGGCGCAGCCCCUGUCAGAUCCUGGUGAAUCUGCGAAUUCUGCUGUAUAUCUC [U31G U49C] | 0.26
UAACAGGGGGCCACAGCAGAAGCGUUCACGGCGCAGCCCCUGUCAGAUACUGGUGAAUCUGCGAAUUCUGCUGUAUAUCUC [U31G U49A] | 0.34
UAACAGGGGGCCACAGCAGAAGCGUUCACGGCGUAGCCCCUGUCAGAUUCUGGUGAAUCUGCGAAUUCUGCUGUAUAUCUC [U31G C34U] | 0.18
UAACAGGGGGCCACAGCAGAAGCGUUCACGGCGAAGCCCCUGUCAGAUUCUGGUGAAUCUGCGAAUUCUGCUGUAUAUCUC [U31G C34A] | 0.14
UAACAGGGGGCCACAGCAGAAGCGUUCACGGCGCAGCCCGUGUCAGAUUCUGGUGAAUCUGCGAAUUCUGCUGUAUAUCUC [U31G C40G] | 0.12
UAACAGGGGGCCACAGCAGAAGCGUUCACGGCACAGCCCCUGUCAGAUUCUGGUGAAUCUGCGAAUUCUGCUGUAUAUCUC [U31G G33A] | 0.57
UAACAGGGGGCCACAGCAGAAGCGUUCACGGCGCAGCCCCUGUCAGAUUCUGAUGAAUCUGCGAAUUCUGCUGUAUAUCUC [U31G G53A] | 0.18
UAACAGGGGGCCACAGCAGAAGCGUUCACGUAGCAGCCCCUGUCAGAUUCUGGUGGAUCUGCGAAUUCUGCUGUAUAUCUC [C32A A56G] | 0.15
UAACAGGGGGCCACAGCAGAAGCGUUCACGGCGCAGCCCCUGUCAGAUUCUGGUGAAUCUGCGAAUUCUGCUGUAUAUAUC [U31G C79A] | 0.56
UAACAGGGGGCCACAGCAGAAGCGUUCACGGCGCAGCCCCUGUCAGAUUCUGGAGAAUCUGCGAAUUCUGCUGUAUAUCUC [U31G U54A] | 0.62
UAACAGGGGGCCACAGCAGAAGCGUUCACGGCGCAGCCCCUGUCAGAUUCUGGCGAAUCUGCGAAUUCUGCUGUAUAUCUC [U31G U54C] | 0.63
UAACAGGGGGCCACAGCAGAAGCGUUCACGGCGCAGCCCCUGUCAGAUUCUGGUGAAUCUGCGAAUUCUGCUGUAUAUCCC [U31G U80C] | 0.72

Variant | self-cleavage
UAACAGGGGGCCACAGCAGAAGCGUUCACGGCGCAGCCCCUGUCAGAUUCUGGUGAAUCUGCGAAUUCUGCUGUAUAUCAC [U31G U80A] | 0.59
UAACAGGGGGCCACAGCAGAAGCGUUCACGGCGCAGCCCCUGCCAGAUUCUGGUGAAUCUGCGAAUUCUGCUGUAUAUCUC [U31G U43C] | 0.36
UAACAGGGGGCCACAGCAGAAGCGUUCACGUAGCAGCCCCUGUCAGAUUCUGGUGAGUCUGCGAAUUCUGCUGUAUAUCUC [C32A A57G] | 0.24
UAACAGGGGGCCACAGCAGAAGCGUUCACGUAGCAGCCCCUGUCAGAUUCUGGUGAUUCUGCGAAUUCUGCUGUAUAUCUC [C32A A57U] | 0.2
UAACAGGGGGCCACAGCAGAAGCGUUCACGGCGCAGCCCCUGUCAGAUUCUGGUGAAUCUGCGAAUUCUGCUGGAUAUCUC [U31G U74G] | 0.99
UAACAGGGGGCCACAGCAGAAGCGUUCACGGCGCAGCCCCUGUCAGAUUCUGGUGAAUCUGCGAAUUCUGCUGCAUAUCUC [U31G U74C] | 0.96
UAACAGGGGGCCACAGCAGAAGCGUUCACGGCGCAGCCCCUGUCAGAUUCUGGUGAAUCUGCGAAUUCUGCUGAAUAUCUC [U31G U74A] | 1.02
UAACAGGGGGCCACAGCAGAAGCGUUCACGGCGCAGCCCCUGUCAGAUUCUGGUGAGUCUGCGAAUUCUGCUGUAUAUCUC [U31G A57G] | 0.48
UAACAGGGGGCCACAGCAGAAGCGUUCACGGCGCAGCCCCUGUCAGAUUCUGGUGAAUCAGCGAAUUCUGCUGUAUAUCUC [U31G U60A] | 0.32
UAACAGGGGGCCACAGCAGAAGCGUUCACGGCGCAGCCCCUGUCAGAUUCUGGUGAAUCCGCGAAUUCUGCUGUAUAUCUC [U31G U60C] | 0.31
UAACAGGGGGCCACAGCAGAAGCGUUCACGUAGCAGCCCCUGUCAGAUUCUGGUGAAUCUGCGAAUUCUGCUGUAUUUCUC [C32A A77U] | 0.33
UAACAGGGGGCCACAGCAGAAGCGUUCACGGCGCAUCCCCUGUCAGAUUCUGGUGAAUCUGCGAAUUCUGCUGUAUAUCUC [U31G G36U] | 0.15
UAACAGGGGGCCACAGCAGAAGCGUUCACGGCGCAGCCUCUGUCAGAUUCUGGUGAAUCUGCGAAUUCUGCUGUAUAUCUC [U31G C39U] | 0.34
UAACAGGGGGCCACAGCAGAAGCGUUCACGUAGGAGCCCCUGUCAGAUUCUGGUGAAUCUGCGAAUUCUGCUGUAUAUCUC [C32A C34G] | 0.44
UAACAGGGGGCCACAGCAGAAGCGUUCACGGCGCAGCCCCUGUCAGAUUCCGGUGAAUCUGCGAAUUCUGCUGUAUAUCUC [U31G U51C] | 0.52
UAACAGGGGGCCACAGCAGAAGCGUUCACGGCGCAGCCCCUGUCAGAUUCUGGUGAAACUGCGAAUUCUGCUGUAUAUCUC [U31G U58A] | 0.44
UAACAGGGGGCCACAGCAGAAGCGUUCACGGCGCAGCCCCUGUCAGAUUCUGGUGAACCUGCGAAUUCUGCUGUAUAUCUC [U31G U58C] | 0.4
UAACAGGGGGCCACAGCAGAAGCGUUCACGGCGCAGCCCCUGUCAGAUUCUGGUGGAUCUGCGAAUUCUGCUGUAUAUCUC [U31G A56G] | 0.45
UAACAGGGGGCCACAGCAGAAGCGUUCACGUAGCAGCCCAUGUCAGAUUCUGGUGAAUCUGCGAAUUCUGCUGUAUAUCUC [C32A C40A] | 0.11
UAACAGGGGGCCACAGCAGAAGCGUUCACGGCGCAGCCCCUGUCAGAUUCUGGUGAAUCUGCGAAUUCUGCGGUAUAUCUC [U31G U72G] | 0.92
UAACAGGGGGCCACAGCAGAAGCGUUCACGGCGCAGCCCCUGUCAGAUUCUGGUGAAUCUGCGAAUUCUGCCGUAUAUCUC [U31G U72C] | 0.82
UAACAGGGGGCCACAGCAGAAGCGUUCACGGCGCAGCCCCUGUCAGAUUCUGGUGAAUCUGCGAAUUCUGCAGUAUAUCUC [U31G U72A] | 0.5
